Measurements reported in patent US7582460B2 (Wacker Chemie AG, priority 2003, dated 2009).

Tests used:
[1] = target: 3-phosphoglycerate dehydrogenase (PGD); assay: Inhibition of PGD activity by L-serine, inhibitor constant Ki; format: biochemical, Escherichia coli; settings: Ki = inhibitor concentration at which activity is 50% of activity without inhibitor
Text: (§1) For example, the PGD activity can be determined in analogy with the method described by McKitrick and Pizer (1980, J. Bacteriol. 141:235-245). The backward reaction is used to measure the enzyme activity in an assay sample which contains phosphohydroxypyruvate and NADH/H^+. The reaction is started by adding enzyme and is monitored in a spectrophotometer by way of the decrease in extinction at 340 nm which is caused by oxidation of the NADH/H^+.
(§2) At an optical density of 1.0, serA expression was in each case induced by adding 0.4 mM […] and the culture was incubated for a further 3 hours. The cells were subsequently harvested by centrifugation, washed and resuspended in 2 ml of buffer (100 mM K-phosphate, pH 7.0; 10 mM MgCl2; 1 mM dithiothreitol). The cells were disrupted using a French press (Spectronic Instruments, Inc. Rochester, N.Y., USA) at a pressure of 18 000 psi. The crude extracts were clarified by centrifugation at 30 000 g and PGD activity was determined using the McKitrick and Pizer test (1980, J. Bacteriol. 141:235-245).

[2] = test system: 3-phosphoglycerate dehydrogenase (PGD); assay: PGD enzyme activity in crude extracts (McKitrick and Pizer test); format: biochemical, Escherichia coli; settings: crude extract of strain expressing plasmid-encoded serA allele; backward reaction, NADH oxidation at 340 nm
Text: as §1, §2

| Molecule | Ki [1] | Activity [2] |
| --- | --- | --- |
| serA49: E. coli PGD variant with replacement G349P (protein, UniProt P0A9T0 2-410, looked up, variant G349P) D-3-phosphoglycerate …: AKVSLEKDKIKFLLVEGVHQKALESLRAAGYTNIEFHKGALDDEQLKESIRDAHFIGLRSRTHLTEDVINAAEKLVAIGCFCIGTNQVDLDAAAKRGIPVFNAPFSNTRSVAELVIGELLLLLRGVPEANAKAHRGVWNKLAAGSFEARGKKLGIIGYGHIGTQLGILAESLGMYVYFYDIENKLPLGNATQVQHLSDLLNMSDVVSLHVPENPSTKNMMGAKEISLMKPGSLLINASRGTVVDIPALCDALASKHLAGAAIDVFPTEPATNSDPFTSPLCEFDNVLLTPHIGGSTQEAQENIGLEVAGKLIKYSDNGSTLSAVNFPEVSLPLHGGRRLMHIHENRPPVLTALNKIFAEQGVNIAAQYLQTSAQMGYVVIDIEADEDVAEKALQAMKAIPGTIRARLLY | 6 mM | 0.05 units/mg |
| serA412: E. coli PGD variant with replacement G349V (protein, UniProt P0A9T0 2-410, looked up, variant G349V) D-3-phosphoglycerate …: AKVSLEKDKIKFLLVEGVHQKALESLRAAGYTNIEFHKGALDDEQLKESIRDAHFIGLRSRTHLTEDVINAAEKLVAIGCFCIGTNQVDLDAAAKRGIPVFNAPFSNTRSVAELVIGELLLLLRGVPEANAKAHRGVWNKLAAGSFEARGKKLGIIGYGHIGTQLGILAESLGMYVYFYDIENKLPLGNATQVQHLSDLLNMSDVVSLHVPENPSTKNMMGAKEISLMKPGSLLINASRGTVVDIPALCDALASKHLAGAAIDVFPTEPATNSDPFTSPLCEFDNVLLTPHIGGSTQEAQENIGLEVAGKLIKYSDNGSTLSAVNFPEVSLPLHGGRRLMHIHENRPVVLTALNKIFAEQGVNIAAQYLQTSAQMGYVVIDIEADEDVAEKALQAMKAIPGTIRARLLY | 5 mM | 0.05 units/mg |
| serA234: E. coli PGD variant with replacement T372K (protein, UniProt P0A9T0 2-410, looked up, variant T372K) D-3-phosphoglycerate …: AKVSLEKDKIKFLLVEGVHQKALESLRAAGYTNIEFHKGALDDEQLKESIRDAHFIGLRSRTHLTEDVINAAEKLVAIGCFCIGTNQVDLDAAAKRGIPVFNAPFSNTRSVAELVIGELLLLLRGVPEANAKAHRGVWNKLAAGSFEARGKKLGIIGYGHIGTQLGILAESLGMYVYFYDIENKLPLGNATQVQHLSDLLNMSDVVSLHVPENPSTKNMMGAKEISLMKPGSLLINASRGTVVDIPALCDALASKHLAGAAIDVFPTEPATNSDPFTSPLCEFDNVLLTPHIGGSTQEAQENIGLEVAGKLIKYSDNGSTLSAVNFPEVSLPLHGGRRLMHIHENRPGVLTALNKIFAEQGVNIAAQYLQKSAQMGYVVIDIEADEDVAEKALQAMKAIPGTIRARLLY |  | 0.05 units/mg |
| serA223: E. coli PGD variant with replacement T372E (protein, UniProt P0A9T0 2-410, looked up, variant T372E) D-3-phosphoglycerate …: AKVSLEKDKIKFLLVEGVHQKALESLRAAGYTNIEFHKGALDDEQLKESIRDAHFIGLRSRTHLTEDVINAAEKLVAIGCFCIGTNQVDLDAAAKRGIPVFNAPFSNTRSVAELVIGELLLLLRGVPEANAKAHRGVWNKLAAGSFEARGKKLGIIGYGHIGTQLGILAESLGMYVYFYDIENKLPLGNATQVQHLSDLLNMSDVVSLHVPENPSTKNMMGAKEISLMKPGSLLINASRGTVVDIPALCDALASKHLAGAAIDVFPTEPATNSDPFTSPLCEFDNVLLTPHIGGSTQEAQENIGLEVAGKLIKYSDNGSTLSAVNFPEVSLPLHGGRRLMHIHENRPGVLTALNKIFAEQGVNIAAQYLQESAQMGYVVIDIEADEDVAEKALQAMKAIPGTIRARLLY |  | 0.04 units/mg |
| serA229: E. coli PGD variant with replacement T372R (protein, UniProt P0A9T0 2-410, looked up, variant T372R) D-3-phosphoglycerate …: AKVSLEKDKIKFLLVEGVHQKALESLRAAGYTNIEFHKGALDDEQLKESIRDAHFIGLRSRTHLTEDVINAAEKLVAIGCFCIGTNQVDLDAAAKRGIPVFNAPFSNTRSVAELVIGELLLLLRGVPEANAKAHRGVWNKLAAGSFEARGKKLGIIGYGHIGTQLGILAESLGMYVYFYDIENKLPLGNATQVQHLSDLLNMSDVVSLHVPENPSTKNMMGAKEISLMKPGSLLINASRGTVVDIPALCDALASKHLAGAAIDVFPTEPATNSDPFTSPLCEFDNVLLTPHIGGSTQEAQENIGLEVAGKLIKYSDNGSTLSAVNFPEVSLPLHGGRRLMHIHENRPGVLTALNKIFAEQGVNIAAQYLQRSAQMGYVVIDIEADEDVAEKALQAMKAIPGTIRARLLY |  | 0.04 units/mg |
| serA206: E. coli PGD variant with replacement T372P (protein, UniProt P0A9T0 2-410, looked up, variant T372P) D-3-phosphoglycerate …: AKVSLEKDKIKFLLVEGVHQKALESLRAAGYTNIEFHKGALDDEQLKESIRDAHFIGLRSRTHLTEDVINAAEKLVAIGCFCIGTNQVDLDAAAKRGIPVFNAPFSNTRSVAELVIGELLLLLRGVPEANAKAHRGVWNKLAAGSFEARGKKLGIIGYGHIGTQLGILAESLGMYVYFYDIENKLPLGNATQVQHLSDLLNMSDVVSLHVPENPSTKNMMGAKEISLMKPGSLLINASRGTVVDIPALCDALASKHLAGAAIDVFPTEPATNSDPFTSPLCEFDNVLLTPHIGGSTQEAQENIGLEVAGKLIKYSDNGSTLSAVNFPEVSLPLHGGRRLMHIHENRPGVLTALNKIFAEQGVNIAAQYLQPSAQMGYVVIDIEADEDVAEKALQAMKAIPGTIRARLLY |  | 0.05 units/mg |
| serA411: E. coli PGD variant with replacement G349T (protein, UniProt P0A9T0 2-410, looked up, variant G349T) D-3-phosphoglycerate …: AKVSLEKDKIKFLLVEGVHQKALESLRAAGYTNIEFHKGALDDEQLKESIRDAHFIGLRSRTHLTEDVINAAEKLVAIGCFCIGTNQVDLDAAAKRGIPVFNAPFSNTRSVAELVIGELLLLLRGVPEANAKAHRGVWNKLAAGSFEARGKKLGIIGYGHIGTQLGILAESLGMYVYFYDIENKLPLGNATQVQHLSDLLNMSDVVSLHVPENPSTKNMMGAKEISLMKPGSLLINASRGTVVDIPALCDALASKHLAGAAIDVFPTEPATNSDPFTSPLCEFDNVLLTPHIGGSTQEAQENIGLEVAGKLIKYSDNGSTLSAVNFPEVSLPLHGGRRLMHIHENRPTVLTALNKIFAEQGVNIAAQYLQTSAQMGYVVIDIEADEDVAEKALQAMKAIPGTIRARLLY | 3 mM | 0.04 units/mg |
| serA21: E. coli PGD variant with replacement T372D (protein, UniProt P0A9T0 2-410, looked up, variant T372D) D-3-phosphoglycerate …: AKVSLEKDKIKFLLVEGVHQKALESLRAAGYTNIEFHKGALDDEQLKESIRDAHFIGLRSRTHLTEDVINAAEKLVAIGCFCIGTNQVDLDAAAKRGIPVFNAPFSNTRSVAELVIGELLLLLRGVPEANAKAHRGVWNKLAAGSFEARGKKLGIIGYGHIGTQLGILAESLGMYVYFYDIENKLPLGNATQVQHLSDLLNMSDVVSLHVPENPSTKNMMGAKEISLMKPGSLLINASRGTVVDIPALCDALASKHLAGAAIDVFPTEPATNSDPFTSPLCEFDNVLLTPHIGGSTQEAQENIGLEVAGKLIKYSDNGSTLSAVNFPEVSLPLHGGRRLMHIHENRPGVLTALNKIFAEQGVNIAAQYLQDSAQMGYVVIDIEADEDVAEKALQAMKAIPGTIRARLLY |  | 0.05 units/mg |
| serA415: E. coli PGD variant with replacement G349K (protein, UniProt P0A9T0 2-410, looked up, variant G349K) D-3-phosphoglycerate …: AKVSLEKDKIKFLLVEGVHQKALESLRAAGYTNIEFHKGALDDEQLKESIRDAHFIGLRSRTHLTEDVINAAEKLVAIGCFCIGTNQVDLDAAAKRGIPVFNAPFSNTRSVAELVIGELLLLLRGVPEANAKAHRGVWNKLAAGSFEARGKKLGIIGYGHIGTQLGILAESLGMYVYFYDIENKLPLGNATQVQHLSDLLNMSDVVSLHVPENPSTKNMMGAKEISLMKPGSLLINASRGTVVDIPALCDALASKHLAGAAIDVFPTEPATNSDPFTSPLCEFDNVLLTPHIGGSTQEAQENIGLEVAGKLIKYSDNGSTLSAVNFPEVSLPLHGGRRLMHIHENRPKVLTALNKIFAEQGVNIAAQYLQTSAQMGYVVIDIEADEDVAEKALQAMKAIPGTIRARLLY | 15 mM | 0.03 units/mg |
| serA410: E. coli PGD variant with replacement G349S (protein, UniProt P0A9T0 2-410, looked up, variant G349S) D-3-phosphoglycerate …: AKVSLEKDKIKFLLVEGVHQKALESLRAAGYTNIEFHKGALDDEQLKESIRDAHFIGLRSRTHLTEDVINAAEKLVAIGCFCIGTNQVDLDAAAKRGIPVFNAPFSNTRSVAELVIGELLLLLRGVPEANAKAHRGVWNKLAAGSFEARGKKLGIIGYGHIGTQLGILAESLGMYVYFYDIENKLPLGNATQVQHLSDLLNMSDVVSLHVPENPSTKNMMGAKEISLMKPGSLLINASRGTVVDIPALCDALASKHLAGAAIDVFPTEPATNSDPFTSPLCEFDNVLLTPHIGGSTQEAQENIGLEVAGKLIKYSDNGSTLSAVNFPEVSLPLHGGRRLMHIHENRPSVLTALNKIFAEQGVNIAAQYLQTSAQMGYVVIDIEADEDVAEKALQAMKAIPGTIRARLLY | 2 mM | 0.04 units/mg |
| serA414: E. coli PGD variant with replacement G349A (protein, UniProt P0A9T0 2-410, looked up, variant G349A) D-3-phosphoglycerate …: AKVSLEKDKIKFLLVEGVHQKALESLRAAGYTNIEFHKGALDDEQLKESIRDAHFIGLRSRTHLTEDVINAAEKLVAIGCFCIGTNQVDLDAAAKRGIPVFNAPFSNTRSVAELVIGELLLLLRGVPEANAKAHRGVWNKLAAGSFEARGKKLGIIGYGHIGTQLGILAESLGMYVYFYDIENKLPLGNATQVQHLSDLLNMSDVVSLHVPENPSTKNMMGAKEISLMKPGSLLINASRGTVVDIPALCDALASKHLAGAAIDVFPTEPATNSDPFTSPLCEFDNVLLTPHIGGSTQEAQENIGLEVAGKLIKYSDNGSTLSAVNFPEVSLPLHGGRRLMHIHENRPAVLTALNKIFAEQGVNIAAQYLQTSAQMGYVVIDIEADEDVAEKALQAMKAIPGTIRARLLY | 1 mM | 0.05 units/mg |
